Results as given in patent US8628762B2, “T-helper cell type 17 lineage-specific adjuvants, compositions and methods” (Icahn School of Medicine at Mount Sinai, priority 2008, dated 2014).

Tested on: Naïve CD4 T-cells
Experiment: In vitro T-cell differentiation in DC conditioned medium, IL-17/IL-10 in supernatants by ELISA
Assay type: cell-based, C57BL/6J mice
Details: IL-6 supplemented to DCCM-apoptotic B-cells
Procedure: Bone marrow (BM)-derived GM-CSF DC cultures were grown in RPMI supplemented with GM-CSF and 5% foetal bovine serum (FBS), plus 100 μg/mL penicillin, 100 μg/mL streptomycin, 2 mM L-glutamine, 10 mM HEPES, 1 nM sodium pyruvate, 1×MEM nonessential amino acids, and 2.5 μM β-mercaptoethanol (all from Sigma-Aldrich, St. Louis, Mo.), as previously dcseribed^1. Semi-adherent cells were harvested on ice on day 5 and re-plated immediately in fresh GM-CSF medium at 1×10^6 cells/well in 24-well tissue culture-treated plates. Soluble or phagocytic stimuli were added right away to the plates in the same medium and the cells were centrifuged for 2 min at 2000 rpm. Supernatants (conditioned medium, CM) were collected after 18 hours. LPS (from E. coli, serotype 055:B5, L-2880) was purchased from Sigma-Aldrich. BMDC were treated with various doses of soluble LPS or 2:1 A20 LPS blasts:DC to titrate the LPS such that levels of IL-6 produced by DC in response to these stimuli was similar. Soluble LPS was used at a final concentration of 1 ng/mL. The A20 B-cell line was obtained from the ATCC (TIB-208). A20 LPS blasts were prepared by culturing A20 cells at 1×10^6 cells/mL, 3 mL/well in 6-well tissue culture plates for four days in RPMI medium supplemented with 10% FBS, with 100 μg/mL penicillin, 100 μg/mL streptomycin, 2 mM L-glutamine, 10 mM HEPES, 1 nM sodium pyruvate, plus 25 μg/mL LPS, as previously described in Blander, J. M. and Medzhitov, R. (2004) Science 304(5673):1014. […] Cells were centrifuged, counted, and apoptosis was induced by UV irradiation at 350 mJ. […]
Naïve CD4 T cells were isolated first by sorting with MACS® CD4^+ beads (Miltenyi Biotech, Auburn, Calif.) according to manufacturer's instructions and then by fluorescence activated cell sorting (FACS) using a MoFlo™, Vantage, or Influx™ cell sorter for CD25^−CD44^lowCD62L^high cells using allophycocyanin (APC)-conjugated anti-CD25 monoclonal antibody (mAb) (clone PC61.5), FITC-conjugated CD62L mAb (clone MEL-14), and PE-Cy5-conjugated CD44 mAb (clone IM7) (all from eBioscience™, San Diego, Calif.). […]

B1: IL-6: cytokine interleukin-6 (Peprotech), 50 ng/mL (protein, UniProt P08505 25-211, looked up)
Interleukin-6: FPTSQVRRGDFTEDTTPNRPVYTTSQVGGLITHVLWEIVEMRKELCNGNSDCMNNDDALAENNLKLPEIQRNDGCYQTGYNQEICLLKISSGLLEYHSYLEYMKNNLKDNKKDKARVLQRDTETLIHIFNQEVKDLHKIVLPTPISNALLTDKLESQKEWLRTKTIQFILKSLEEFLKVTLRSTRQT
With B1 as the molecule, how does the IL-17 production read?
Its IL-17 production is “restored IL-17 production”.
